Results taken from paper PMC3173486.

Target: HA of all the influenza A/H3N2 viruses tested with RpSP-D multimers and trimers

B1: RpSP-D multimers (natural protein)
chain: AEMKTYSQRAVANACALVMCSPMENGLPGRDGRDGREGPRGEKGDPGLPGAVGRAGMPGLAGPVGPKGDNGSTGEPGAKGDIGPCGPPGPPGIPGPAGKEGPSGQQGNIGPPGTPGPKGETGPKGEVGALGMQGSTGARGPAGLKGERGAPGERGAPGSAGAAGPAGATGPQGPSGARGPPGLKGDRGPPGERGAKGESGLPGITALRQQVETLQGQVQRLQKAFSQYKKVELFPNGRGVGEKIFKTGGFEKTFQDAQQVCTQAGGQMASPRSETENEALSQLVTAQNKAAFLSMTDIKTEGNFTYPTGEPLVYANWAPGEPNNNGGSSGAENCVEIFPNGKWNDKACGELRLVICEF
  HI assay: minimal inhibitory concentration of RpSP-D multimers: 8.7 ng/100 µl

B2: RpSP-D trimers (natural protein)
chain: B1 chain
  HI assay: minimal inhibitory concentration of RpSP-D trimers: 124 ng/100 µl
